Laboratory results published in US20230414780A1 (VECT HORUS, published 2023).

How the values were obtained:
[1] = molecular target: T1, mouse transferrin receptor (mTfR) fused to EGFP, on CHO cells (mouse, UniProt Q62351 1-763); test: apparent Kd, flow cytometry, CHO cells
T1 construct: whole, on cells; also called mouse TfR; CHO-mTfR-EGFP; not shown: EGFP
In short: (§1)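 CHO cells expressing TfR-EGFP fusions, blocked in PBS/BSA 2%, then incubated with increasing VHH concentrations for 1 hr at 4° C. Bound VHH detected via anti-6His antibody and Alexa647 secondary, cells PFA-fixed, read by flow cytometry. Apparent Kd from nonlinear fit.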

[2] = molecular target: T2, human transferrin receptor (hTfR) fused to EGFP, on CHO cells (human, UniProt P02786 1-760); test: apparent Kd, flow cytometry, CHO cells
T2 construct: whole, on cells; also called human TfR; CHO-hTfR-EGFP; not shown: EGFP from pEGFP-C1 vector, fused to the N-terminal (intracellular) end of hTfR
T2 sequence (P02786 whole entry, the tested form may be a part): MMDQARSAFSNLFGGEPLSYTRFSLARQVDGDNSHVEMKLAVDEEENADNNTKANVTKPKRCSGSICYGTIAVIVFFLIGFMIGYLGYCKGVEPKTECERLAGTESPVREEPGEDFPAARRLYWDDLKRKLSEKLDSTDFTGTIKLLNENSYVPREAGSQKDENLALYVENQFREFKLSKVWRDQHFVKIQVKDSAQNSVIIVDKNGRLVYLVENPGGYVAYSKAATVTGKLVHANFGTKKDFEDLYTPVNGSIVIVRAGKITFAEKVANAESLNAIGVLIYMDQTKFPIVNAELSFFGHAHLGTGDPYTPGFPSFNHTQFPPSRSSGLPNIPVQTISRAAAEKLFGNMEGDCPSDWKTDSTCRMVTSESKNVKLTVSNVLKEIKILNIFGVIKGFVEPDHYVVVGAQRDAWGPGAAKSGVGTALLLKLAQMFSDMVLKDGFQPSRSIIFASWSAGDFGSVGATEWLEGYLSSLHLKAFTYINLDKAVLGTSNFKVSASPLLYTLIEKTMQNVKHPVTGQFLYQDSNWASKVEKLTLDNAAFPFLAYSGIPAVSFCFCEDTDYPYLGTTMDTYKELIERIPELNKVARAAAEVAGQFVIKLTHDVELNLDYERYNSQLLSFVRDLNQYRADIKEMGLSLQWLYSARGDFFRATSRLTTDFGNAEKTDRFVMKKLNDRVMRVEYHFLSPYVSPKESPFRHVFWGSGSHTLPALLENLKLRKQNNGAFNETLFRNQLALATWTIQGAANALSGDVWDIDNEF
In short: as §1

[3] = molecular target: T3, rhesus monkey transferrin receptor (rhTfR) fused to EGFP, on CHO cells (rhesus monkey); test: apparent Kd, flow cytometry, CHO cells
T3 construct: whole, on cells; also called rhesus monkey TfR
In short: as §1

[4] = molecular target: T4, murine TfR expressed by murine neuroblastoma Neuro-2a cells (mouse, UniProt Q62351 1-763); test: competition with C5-Alexa680 (100 nM) on living Neuro-2a cells, 3 hrs at 37 C, flow cytometry; Ki/app, mean ± SD
T4 construct: whole, on cells; also called mTfR (N2a cells)
T4 sequence (Q62351 whole entry): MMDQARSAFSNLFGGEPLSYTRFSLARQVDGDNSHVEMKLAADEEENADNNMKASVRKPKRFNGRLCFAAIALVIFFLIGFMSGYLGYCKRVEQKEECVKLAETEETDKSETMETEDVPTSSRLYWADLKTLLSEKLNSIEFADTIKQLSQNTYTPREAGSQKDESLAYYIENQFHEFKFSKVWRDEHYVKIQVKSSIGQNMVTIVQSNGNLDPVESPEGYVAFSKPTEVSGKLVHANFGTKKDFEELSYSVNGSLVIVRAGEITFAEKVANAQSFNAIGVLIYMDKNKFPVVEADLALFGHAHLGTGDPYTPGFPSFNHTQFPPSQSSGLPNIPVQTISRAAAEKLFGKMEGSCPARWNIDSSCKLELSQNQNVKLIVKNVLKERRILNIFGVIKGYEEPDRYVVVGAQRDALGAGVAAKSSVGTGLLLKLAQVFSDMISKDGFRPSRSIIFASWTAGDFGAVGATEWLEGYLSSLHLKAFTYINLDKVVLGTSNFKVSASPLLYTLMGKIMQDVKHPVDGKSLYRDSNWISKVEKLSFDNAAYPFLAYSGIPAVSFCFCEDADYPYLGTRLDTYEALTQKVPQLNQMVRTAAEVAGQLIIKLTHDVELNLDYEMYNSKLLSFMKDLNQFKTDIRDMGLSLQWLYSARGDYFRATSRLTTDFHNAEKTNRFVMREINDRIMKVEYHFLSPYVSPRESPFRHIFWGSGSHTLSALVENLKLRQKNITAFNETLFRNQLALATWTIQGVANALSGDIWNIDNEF
Experimental: (§2) The binding of VHH-Oligo and VHH-hFc-Oligo conjugates to mTfR was evaluated using a competition assay on living cells expressing the receptor of interest, namely murine neuroblastoma Neuro-2a cells (N2a). N2a cells were grown in Dulbecco's Modified Eagle Medium (DMEM) GlutaMAX supplemented with 10% v/v FBS in 5% CO₂ at 37° C. Cells were seeded two days before experiments in 96-well plates at a density of 50.000 cells/well. […] Resuspended cells were transferred in a 96-deepwell plate (V-bottom) containing 1% fetal bovine serum (FBS)/0.02% sodium azide in phosphate-buffered saline (PBS) and then centrifuged for 5 min at 2000 rpm at 4° C. After removing the supernatant, 5 mM EDTA in D-PBS and 4% paraformaldehyde (PFA) (v/v 1:1) were added into wells to fix cells for 15 min at room temperature. PFA was removed by centrifugation (5 min, 3000 rpm, 4° C.) and cells were resuspended with 5 mM EDTA in D-PBS. Then the cellular A680-associated fluorescence signal was quantified using an Attune™ NxT flow cytometer (Thermo Fisher Scientific) equipped with Attune™ NxT v3.1.2. Experimental data (experimental triplicates) were fitted with GraphPad Prism® software using a nonlinear fit to determine the apparent Ki inhibition constants.

[5] = molecular target: T4, murine TfR expressed by murine …; test: competition with the fluorescent reference VHH on Neuro-2a cells as in FIG. 25; Ki/app on mTfR, free VHH
Experimental: as §2

[6] = molecular target: T5, mouse TfR ectodomain fused to a mouse IgG1 Fc fragment (mouse, UniProt Q62351 89-763); test: SPR, at equilibrium
T5 construct: extracellular domain; not shown: mouse IgG1 Fc fragment
T5 sequence (Q62351 89-763): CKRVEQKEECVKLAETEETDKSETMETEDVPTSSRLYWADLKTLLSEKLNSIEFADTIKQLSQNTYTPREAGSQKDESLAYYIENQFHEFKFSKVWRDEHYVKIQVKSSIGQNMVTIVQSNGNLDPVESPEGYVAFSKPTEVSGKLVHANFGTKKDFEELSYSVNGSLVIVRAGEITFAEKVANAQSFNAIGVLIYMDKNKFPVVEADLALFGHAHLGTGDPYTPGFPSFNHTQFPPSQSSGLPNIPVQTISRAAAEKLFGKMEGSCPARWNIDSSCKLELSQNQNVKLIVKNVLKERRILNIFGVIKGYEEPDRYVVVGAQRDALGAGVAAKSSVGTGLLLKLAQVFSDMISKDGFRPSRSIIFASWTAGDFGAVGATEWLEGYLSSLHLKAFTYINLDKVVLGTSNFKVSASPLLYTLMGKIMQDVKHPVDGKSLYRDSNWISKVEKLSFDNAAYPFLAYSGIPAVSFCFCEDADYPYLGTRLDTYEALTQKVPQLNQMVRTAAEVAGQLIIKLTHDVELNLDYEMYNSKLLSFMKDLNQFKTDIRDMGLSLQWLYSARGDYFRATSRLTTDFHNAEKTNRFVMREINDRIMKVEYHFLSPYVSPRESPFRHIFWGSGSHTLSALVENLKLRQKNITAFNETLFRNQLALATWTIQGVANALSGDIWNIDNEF
In short: (§3)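 TfR–mouse Fc fusions, produced in-house, captured on HC 1500M or CM5 chips either directly or via immobilized anti-mouse IgG. VHHs injected in single-cycle or multiple-cycle kinetic mode on Biacore T200.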

[7] = molecular target: T6, rhesus monkey TfR ectodomain fused to a mouse IgG1 Fc fragment (rhesus monkey, UniProt I0FKY7 89-760); test: SPR, at equilibrium
T6 construct: extracellular domain; not shown: mouse IgG1 Fc fragment
In short: as §3

T1 sequence (Q62351 whole entry, the tested form may be a part): as the sequence (Q62351 whole entry) above

Kd [1]: 50 nM
Kd [2]: 2.7 nM
Kd [3]: 4.9 nM
Ki [4]: 319 nM
Ki [5]: 319 nM
Kd [6]: 88.2 nM
Kd [7]: 13.1 nM
B1: VHH A (C5) (VHH)
VHH: EVQLVESGGGVVQPGGSLKLSCVASGTDFSINFIRWYRQAPGKQREFVAGFTATGNTNYADSMKGRFTISRDNTKNAVYLQIDSLKPEDTAVYYCYMLDKWGQGTQVTVSS
notes: form with the C-terminal myc-His6 tag (x = 1), since the VHHs were detected with anti-6His or anti-cMyc; the same holds for m12 to m126
